B1: BsAb-12 (bispecific antibody, human IgG1, lambda)
chain: EVQLVESGGGLVQPGGSLRLSCAASGRSFSSFQMGWFRQAPGKEREFVAASGWSGGPTYYWDSVIGRFTISTDNSKNTLYLQMNSLRAEDTAVYYCYEDRVLSGRPVRYWGQGTLVTVSSDKTHTCPPCPAPESTRGPSVFLFPPKPKDTLMISRTPEVTCVVVDVSHEDPEVKFNWYVDGVEVHNAKTKPREEQYNSTYRVVSVLTVLHQDWLNGKEYKCKVSNKALPAPIEKTISKAKGQPREPQVCTLPPSRDELTKNQVSLSCAVKGFYPSDIAVEWESNGQPENNYKTTPPVLDSDGSFFLVSKLTVDKSRWQQGNVFSCSVMHEALHNHYTQKSLSLSPGK
heavy: EVQLVESGGGLVQPGGSLRLSCAASGRSFSSFQMGWFRQAPGKEREFVAASGWSGGPTYYWDSVIGRFTISTDNSKNTLYLQMNSLRAEDTAVYYCYEDRVLSGRPVRYWGQGTLVTVSSGGGGSGGGGSGGGGSEVQLVESGGGLVQPGRSLRLSCAASGFTFNTYAMNWVRQAPGKGLEWVARIRSKYNNYATYYADSVKDRFTISRDDSKSIAYLQMNSLKTEDTAVYYCVRHGNFGNSYVSWFAYWGQGTLVTVSSASTKGPSVFPLAPSSKSTSGGTAALGCLVKDYFPEPVTVSWNSGALTSGVHTFPAVLQSSGLYSLSSVVTVPSSSLGTQTYICNVNHKPSNTKVDKKVEPKSCDKTHTCPPCPAPESTRGPSVFLFPPKPKDTLMISRTPEVTCVVVDVSHEDPEVKFNWYVDGVEVHNAKTKPREEQYNSTYRVVSVLTVLHQDWLNGKEYKCKVSNKALPAPIEKTISKAKGQPREPQVYTLPPCRDELTKNQVSLWCLVKGFYPSDIAVEWESNGQPENNYKTTPPVLDSDGSFFLYSKLTVDKSRWQQGNVFSCSVMHEALHNHYTQKSLSLSPGK
light: QTVVTQEPSLTVSPGGTVTLTCRSSTGAVTTSNYANWVQQKPGQAPRGLIGGTNKRAPGVPARFSGSLLGGKAALTLSGVQPEDEAEYFCALWYSNLWVFGGGTKLTVLGQPKAAPSVTLFPPSSEELQANKATLVCLISDFYPGAVTVAWKADSSPVKAGVETTTPSKQSNNKYAASSYLSLTPEQWKSHRSYSCQVTHEGSTVEKTVAPTECS
notes: also called BsAb-12 CD3×ROR1
B2: BsAb-9 (bispecific antibody, human IgG1, lambda)
chain: EVQLVESGGGLVQPGGSLRLSCAASGFISRFYAMGWYRQAPGKQRELVARISSMGWTYYADSVKGRFTISIDNSKNTLYLQMNSLRAEDTAVYYCNARNLWGQGTLVTVSSDKTHTCPPCPAPESTRGPSVFLFPPKPKDTLMISRTPEVTCVVVDVSHEDPEVKFNWYVDGVEVHNAKTKPREEQYNSTYRVVSVLTVLHQDWLNGKEYKCKVSNKALPAPIEKTISKAKGQPREPQVCTLPPSRDELTKNQVSLSCAVKGFYPSDIAVEWESNGQPENNYKTTPPVLDSDGSFFLVSKLTVDKSRWQQGNVFSCSVMHEALHNHYTQKSLSLSPGK
heavy: EVQLVESGGGLVQPGGSLRLSCAASGFISRFYAMGWYRQAPGKQRELVARISSMGWTYYADSVKGRFTISIDNSKNTLYLQMNSLRAEDTAVYYCNARNLWGQGTLVTVSSGGGGSGGGGSGGGGSEVQLVESGGGLVQPGRSLRLSCAASGFTFNTYAMNWVRQAPGKGLEWVARIRSKYNNYATYYADSVKDRFTISRDDSKSIAYLQMNSLKTEDTAVYYCVRHGNFGNSYVSWFAYWGQGTLVTVSSASTKGPSVFPLAPSSKSTSGGTAALGCLVKDYFPEPVTVSWNSGALTSGVHTFPAVLQSSGLYSLSSVVTVPSSSLGTQTYICNVNHKPSNTKVDKKVEPKSCDKTHTCPPCPAPESTRGPSVFLFPPKPKDTLMISRTPEVTCVVVDVSHEDPEVKFNWYVDGVEVHNAKTKPREEQYNSTYRVVSVLTVLHQDWLNGKEYKCKVSNKALPAPIEKTISKAKGQPREPQVYTLPPCRDELTKNQVSLWCLVKGFYPSDIAVEWESNGQPENNYKTTPPVLDSDGSFFLYSKLTVDKSRWQQGNVFSCSVMHEALHNHYTQKSLSLSPGK
light: QTVVTQEPSLTVSPGGTVTLTCRSSTGAVTTSNYANWVQQKPGQAPRGLIGGTNKRAPGVPARFSGSLLGGKAALTLSGVQPEDEAEYFCALWYSNLWVFGGGTKLTVLGQPKAAPSVTLFPPSSEELQANKATLVCLISDFYPGAVTVAWKADSSPVKAGVETTTPSKQSNNKYAASSYLSLTPEQWKSHRSYSCQVTHEGSTVEKTVAPTECS
notes: also called BsAb-09

Experiments:
[1] = biological target: human ROR1 (on CHO-K1/ROR1 cells and ROR1 tumour cell lines) (human) (UniProt Q01973); experiment: flow cytometry on MDA-MB-231 cells (human ROR1 tumour cell line)
human ROR1 (on CHO-K1/ROR1 cells and ROR1 tumour cell lines) (human), sequence (Q01973 30-937): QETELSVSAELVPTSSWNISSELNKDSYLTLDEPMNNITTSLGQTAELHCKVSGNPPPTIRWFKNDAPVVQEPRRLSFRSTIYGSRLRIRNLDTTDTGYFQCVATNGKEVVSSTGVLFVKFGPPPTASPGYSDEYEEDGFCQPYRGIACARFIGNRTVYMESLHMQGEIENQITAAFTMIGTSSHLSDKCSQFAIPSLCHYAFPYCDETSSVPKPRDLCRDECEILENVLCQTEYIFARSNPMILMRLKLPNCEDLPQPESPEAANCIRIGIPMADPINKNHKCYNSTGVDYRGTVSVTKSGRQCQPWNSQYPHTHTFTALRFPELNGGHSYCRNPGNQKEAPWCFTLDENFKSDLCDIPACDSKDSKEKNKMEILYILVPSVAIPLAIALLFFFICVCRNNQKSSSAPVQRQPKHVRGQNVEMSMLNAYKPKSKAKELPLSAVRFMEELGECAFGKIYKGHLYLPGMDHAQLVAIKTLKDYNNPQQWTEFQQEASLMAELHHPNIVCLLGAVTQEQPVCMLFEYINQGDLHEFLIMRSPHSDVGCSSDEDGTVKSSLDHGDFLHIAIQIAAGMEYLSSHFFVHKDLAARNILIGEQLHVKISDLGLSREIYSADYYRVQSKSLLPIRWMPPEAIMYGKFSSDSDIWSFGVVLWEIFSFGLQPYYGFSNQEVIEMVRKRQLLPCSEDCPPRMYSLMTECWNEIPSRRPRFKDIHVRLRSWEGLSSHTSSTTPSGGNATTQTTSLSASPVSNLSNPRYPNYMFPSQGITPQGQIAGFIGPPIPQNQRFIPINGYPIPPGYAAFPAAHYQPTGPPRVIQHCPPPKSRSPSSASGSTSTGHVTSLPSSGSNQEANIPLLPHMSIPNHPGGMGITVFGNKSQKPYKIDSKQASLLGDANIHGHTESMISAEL

[2] = biological target: human ROR1 (on CHO-K1/ROR1 cells and ROR1 tumour cell lines) (human) (UniProt Q01973); experiment: flow cytometry on A375 cells (human ROR1 tumour cell line)
[3] = biological target: human ROR1 (on CHO-K1/ROR1 cells and ROR1 tumour cell lines) (human) (UniProt Q01973); experiment: flow cytometry on Jeko-1 cells (human ROR1 tumour cell line)
[4] = biological target: human ROR1 (on CHO-K1/ROR1 cells and ROR1 tumour cell lines) (human) (UniProt Q01973); experiment: flow cytometry on PA-1 cells (human ROR1 tumour cell line)
[5] = biological target: human ROR1 (on CHO-K1/ROR1 cells and ROR1 tumour cell lines) (human) (UniProt Q01973); experiment: flow cytometry on A549 cells (human ROR1 tumour cell line)
[6] = biological target: human ROR1 (on CHO-K1/ROR1 cells and ROR1 tumour cell lines) (human) (UniProt Q01973); experiment: flow cytometry on PSN-1 cells (human ROR1 tumour cell line)
[7] = biological target: T1, human CD3 (on Jurkat cells) (human, UniProt P07766 23-207; P09693 23-182; P04234 22-171); experiment: flow cytometry on Jurkat cells expressing human CD3
T1 construct: whole, on cells
T1 sequence (P07766 23-207, chain 1 of 3): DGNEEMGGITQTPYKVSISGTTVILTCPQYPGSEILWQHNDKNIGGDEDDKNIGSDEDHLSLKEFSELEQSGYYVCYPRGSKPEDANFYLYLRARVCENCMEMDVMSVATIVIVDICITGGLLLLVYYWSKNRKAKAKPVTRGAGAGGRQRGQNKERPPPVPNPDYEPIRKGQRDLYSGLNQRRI
T1 sequence (P09693 23-182, chain 2 of 3): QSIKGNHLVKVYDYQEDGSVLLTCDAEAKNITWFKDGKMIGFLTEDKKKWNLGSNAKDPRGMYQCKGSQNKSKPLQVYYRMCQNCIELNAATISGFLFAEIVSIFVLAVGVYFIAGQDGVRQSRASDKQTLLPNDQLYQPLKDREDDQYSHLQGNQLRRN
T1 sequence (P04234 22-171, chain 3 of 3): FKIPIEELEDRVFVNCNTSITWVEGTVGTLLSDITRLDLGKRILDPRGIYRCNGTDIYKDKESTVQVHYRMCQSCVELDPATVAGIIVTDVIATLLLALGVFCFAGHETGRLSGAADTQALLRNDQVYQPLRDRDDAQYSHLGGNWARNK

[8] = biological target: human ROR1 (on CHO-K1/ROR1 cells and ROR1 tumour cell lines) (human) (UniProt Q01973); experiment: cell-based or functional assay
[9] = biological target: human ROR1 (on CHO-K1/ROR1 cells and ROR1 tumour cell lines) (human) (UniProt Q01973); experiment: flow cytometry on CHO-K1/ROR1 cells overexpressing human ROR1
[10] = biological target: T2, human ROR1 (on CHO-K1/ROR1 cells and ROR1 tumour cell lines) (human, UniProt Q01973 30-937); experiment: as above
T2 construct: whole, on cells; also called receptor tyrosine kinase-like orphan receptor 1
T2 sequence (Q01973 30-937): as the sequence (Q01973 30-937) above

[11] = biological target: T2, human ROR1 (on CHO-K1/ROR1 cells and …); experiment: flow cytometry on A549 cells (human ROR1 tumour cell line)
[12] = biological target: T3, human ROR1 protein (human, UniProt Q01973 30-403, limits assumed); experiment: SPR (Biacore 8K); human ROR1 amine-coupled at 0.50 ug/mL as ligand, antibody as analyte
T3 construct: Recombinant antigen of the SPR assay; also called ROR1 (SPR ligand)
T3 sequence (Q01973 30-403 limits assumed): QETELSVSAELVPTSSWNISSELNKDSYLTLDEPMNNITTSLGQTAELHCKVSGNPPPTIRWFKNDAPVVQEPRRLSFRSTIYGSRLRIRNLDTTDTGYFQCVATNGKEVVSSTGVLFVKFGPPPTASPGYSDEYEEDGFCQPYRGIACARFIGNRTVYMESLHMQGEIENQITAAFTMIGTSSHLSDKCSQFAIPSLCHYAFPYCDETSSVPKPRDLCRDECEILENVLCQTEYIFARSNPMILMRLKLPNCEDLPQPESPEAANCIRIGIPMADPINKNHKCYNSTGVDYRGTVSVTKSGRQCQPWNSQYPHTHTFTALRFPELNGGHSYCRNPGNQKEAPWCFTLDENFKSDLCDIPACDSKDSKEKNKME

[13] = biological target: T2, human ROR1 (on CHO-K1/ROR1 cells and …); experiment: flow cytometry on A375 cells (human ROR1 tumour cell line)
[14] = biological target: T2, human ROR1 (on CHO-K1/ROR1 cells and …); experiment: flow cytometry on PA-1 cells (human ROR1 tumour cell line)
[15] = biological target: T3, human ROR1 protein; experiment: SPR (Biacore 8K); human ROR1 amine-coupled at 0.05 ug/mL as ligand, antibody as analyte
[16] = biological target: T2, human ROR1 (on CHO-K1/ROR1 cells and …); experiment: flow cytometry on Jeko-1 cells (human ROR1 tumour cell line)
[17] = biological target: T3, human ROR1 protein; experiment: SPR (Biacore 8K); human ROR1 amine-coupled at 2.50 ug/mL as ligand, antibody as analyte
[18] = biological target: T2, human ROR1 (on CHO-K1/ROR1 cells and …); experiment: flow cytometry on MDA-MB-231 cells (human ROR1 tumour cell line)
[19] = biological target: T3, human ROR1 protein; experiment: SPR (Biacore 8K); human ROR1 amine-coupled at 62.50 ug/mL as ligand, antibody as analyte
[20] = biological target: T2, human ROR1 (on CHO-K1/ROR1 cells and …); experiment: cell-based or functional assay
[21] = biological target: T3, human ROR1 protein; experiment: SPR (Biacore 8K); human ROR1 amine-coupled at 12.50 ug/mL as ligand, antibody as analyte
[22] = biological target: T2, human ROR1 (on CHO-K1/ROR1 cells and …); experiment: flow cytometry on PSN-1 cells (human ROR1 tumour cell line)
[23] = biological target: T3, human ROR1 protein; experiment: SPR (Biacore 8K); human ROR1 amine-coupled at 0.10 ug/mL as ligand, antibody as analyte

Molecule | EC50 [7] | EC50 [10] | Kd [12] | koff [12] | kon [12] | Kd [15] | koff [15] | kon [15] | Kd [17] | koff [17] | kon [17] | Kd [19] | koff [19] | kon [19] | Kd [21] | koff [21] | kon [21] | Kd [23] | koff [23] | kon [23] | also measured
EMB-07 (bispecific antibody) | 4.45 nM |  |  |  |  |  |  |  |  |  |  |  |  |  |  |  |  |  |  |  | EC50 [1]: 3.84 nM; EC50 [2]: 2.5 nM; EC50 [3]: 7.15 nM; EC50 [4]: 5.06 nM; EC50 [5]: 4.01 nM; EC50 [6]: 6.09 nM; EC50 of T cell activation based on reporter gene (luciferase), target cells A375 [8]: 0.428 nM; EC50 of T cell activation based on reporter gene (luciferase), target cells Jeko-1 [8]: 0.155 nM; EC50 of T cell activation based on reporter gene (luciferase), target cells MDA-MB-231 [8]: 0.0644 nM; EC50 [9]: 2.39 nM
B1 | 1.39 nM | 0.223 nM | 0.354 nM | 0.000207 s⁻¹ | 585000 M⁻¹ s⁻¹ | 0.649 nM | 0.000421 s⁻¹ | 649000 M⁻¹ s⁻¹ | 0.106 nM | 8.37e-05 s⁻¹ | 788000 M⁻¹ s⁻¹ | 0.0267 nM | 2.83e-05 s⁻¹ | 1.06e+06 M⁻¹ s⁻¹ | 0.0349 nM | 5.83e-05 s⁻¹ | 1.67e+06 M⁻¹ s⁻¹ | 0.359 nM | 0.000169 s⁻¹ | 471000 M⁻¹ s⁻¹ | EC50 [11]: 0.415 nM; EC50 [13]: 0.155 nM; EC50 [14]: 0.547 nM; EC50 [16]: 0.133 nM; EC50 [18]: 0.308 nM; EC50 of T cell activation based on reporter gene (luciferase), target cells A375 [20]: 0.0117 nM; EC50 of T cell activation based on reporter gene (luciferase), target cells Jeko-1 [20]: 0.00748 nM; EC50 of T cell activation based on reporter gene (luciferase), target cells MDA-MB-231 [20]: 0.00258 nM; EC50 [22]: 1.17 nM
B2 | 1.38 nM | 0.0864 nM | 0.0216 nM | 0.00083 s⁻¹ | 3.85e+07 M⁻¹ s⁻¹ | 0.0811 nM | 0.00143 s⁻¹ | 1.76e+07 M⁻¹ s⁻¹ | 0.0129 nM | 0.000521 s⁻¹ | 4.05e+07 M⁻¹ s⁻¹ | 0.00682 nM | 0.000187 s⁻¹ | 2.73e+07 M⁻¹ s⁻¹ | 0.00664 nM | 0.000242 s⁻¹ | 3.65e+07 M⁻¹ s⁻¹ | 0.0497 nM | 0.00113 s⁻¹ | 2.28e+07 M⁻¹ s⁻¹ | 

— patent EP4782541A1 (Nanjing Probio Biotech Co., Ltd., dated 2026)
